Data published in patent US20220267369A1.

Experiments:
[1] = biological target: Protein A ligand of MabSelect Sure resin (GE Healthcare, Chicago, IL); test: separation factor on Protein A MabSelect Sure against mAb2; Equil/wash: 10 mM NaPhosphate, pH 6.5
[2] = biological target: Protein A ligand of MabSelect Sure resin (GE Healthcare, Chicago, IL); test: separation factor on Protein A MabSelect Sure against mAb1; Equil/wash: 10 mM NaPhosphate, pH 6.5
[3] = biological target: Protein A ligand of MabSelect Sure resin (GE Healthcare, Chicago, IL); test: resin slurry plate partitioning on Protein A MabSelect Sure; Strip: 100 mM acetic acid
[4] = biological target: Protein A ligand of MabSelect Sure resin (GE Healthcare, Chicago, IL); test: separation factor on Protein A MabSelect Sure against mAb1; High salt wash: 10 mM NaPhosphate, pH 6.5, 0.5M NaCl
[5] = biological target: Protein A ligand of MabSelect Sure resin (GE Healthcare, Chicago, IL); test: separation factor on protein A resin against mAb3, loading condition
[6] = biological target: Protein A ligand of MabSelect Sure resin (GE Healthcare, Chicago, IL); test: resin slurry plate partitioning on Protein A MabSelect Sure; Elute: 20 mM NaAcetate, pH 3.5
[7] = biological target: Protein A ligand of MabSelect Sure resin (GE Healthcare, Chicago, IL); test: separation factor on Protein A MabSelect Sure against mAb2; High salt wash: 10 mM NaPhosphate, pH 6.5, 0.5M NaCl
[8] = biological target: Protein A ligand of MabSelect Sure resin (GE Healthcare, Chicago, IL); test: separation factor on Protein A MabSelect Sure against mAb2; Elute: 20 mM NaAcetate, pH 3.5
[9] = biological target: Protein A ligand of MabSelect Sure resin (GE Healthcare, Chicago, IL); test: separation factor on Protein A MabSelect Sure against mAb1; Strip: 100 mM acetic acid
[10] = biological target: Protein A ligand of MabSelect Sure resin (GE Healthcare, Chicago, IL); test: resin slurry plate partitioning on Protein A MabSelect Sure; High salt wash: 10 mM NaPhosphate, pH 6.5, 0.5M NaCl
[11] = biological target: Protein A ligand of MabSelect Sure resin (GE Healthcare, Chicago, IL); test: separation factor on Protein A MabSelect Sure against mAb1; Elute: 20 mM NaAcetate, pH 3.5
[12] = biological target: Protein A ligand of MabSelect Sure resin (GE Healthcare, Chicago, IL); test: separation factor on Protein A MabSelect Sure against mAb2; Strip: 100 mM acetic acid
[13] = biological target: Protein A ligand of MabSelect Sure resin (GE Healthcare, Chicago, IL); test: resin slurry plate partitioning on Protein A MabSelect Sure; Equil/wash: 10 mM NaPhosphate, pH 6.5

How did the log α (log KP PLBL2 - log KP mAb2) [1] turn out when phospholipase B-like 2 (PLBL2) (enzyme) was run?
Its log α (log KP PLBL2 - log KP mAb2) is -2.

What about the log α (log KP PLBL2 - log KP mAb1) [2] of the same substance?
Its log α (log KP PLBL2 - log KP mAb1) is -2.

What about the log KP (partition coefficient, bound/free on resin) [3] of the same substance?
The log KP (partition coefficient, bound/free on resin) was 0.

And the log α (log KP PLBL2 - log KP mAb1) [4]?
Its log α (log KP PLBL2 - log KP mAb1) is -2.

What about the log α (log KP PLBL2 - log KP mAb3) [5] of the same substance?
Its log α (log KP PLBL2 - log KP mAb3) is -2.

What about the log KP (partition coefficient, bound/free on resin) [6] of the same substance?
Its log KP (partition coefficient, bound/free on resin) is 0.

And the log α (log KP PLBL2 - log KP mAb2) [7]?
The log α (log KP PLBL2 - log KP mAb2) was -2.

What about the log α (log KP PLBL2 - log KP mAb2) [8] of the same substance?
Its log α (log KP PLBL2 - log KP mAb2) is -0.3.

And the log α (log KP PLBL2 - log KP mAb1) [9]?
The log α (log KP PLBL2 - log KP mAb1) was 0.

And the log KP (partition coefficient, bound/free on resin) [10]?
Its log KP (partition coefficient, bound/free on resin) is 0.

What about the log α (log KP PLBL2 - log KP mAb1) [11] of the same substance?
Its log α (log KP PLBL2 - log KP mAb1) is 0.

And the log α (log KP PLBL2 - log KP mAb2) [12]?
Its log α (log KP PLBL2 - log KP mAb2) is 0.

What about the log KP (partition coefficient, bound/free on resin) [13] of the same substance?
Its log KP (partition coefficient, bound/free on resin) is 0.
